Assays:
Experiment in all cases: ELISA, Fc fusion protein coated at 1 µg/ml, TPP-2090 at 75 nM, Amplex Red;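 further: binding reported as ELISA signal intensity in Rfu against a panel of TNF receptor superfamily members presented as Fc fusion proteins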
[1] = target: T1, Trail-R1 (TNFRSF10A) Fc fusion protein (Human, UniProt O00220 24-239)
T1 construct: extracellular domain; bought
Source text: (§1) Shown is the result of an ELISA: Y is “ELISA signal intensity [Rfu]”; X are “TNF receptor superfamily proteins tested (Fc-fusion proteins)”: 1 is “TWEAKR”; 2 is “TWEAKR”; 3 is “Apo-3”; 4 is “Trail-R1”; 5 is “Trail-R2”; 6 is “CD385”; 7 is “CD95”; 8 is “Rank”; 9 is “TNF-R1”; 10 is “TNF-R2”; 11 is “BAFF-R”; 12 is “DcR3”; 13 is “BCMA”; 14 is “TACI”; 15 is “OX40”; 16 is “CD30”; 17 is “CD27”; 18 is “CD40”; 19 is “Osteoprotegerin”; 20 is “EDAR”; 21 is “GITR”; 22 is “HVEM”; 23 is “NGF R”; 24 is “Trail R3”; 25 is “Lymphotioxin B R”; 26 is “Trail R4”; 27 is “EDA2R”; 28 is “TROY”; 29 is “RELT”; 30 is “4-1BB”.
(§2) To collect dose-response data a serial 3fold dilution of biotinylated IgG starting with a concentration of 2 μM was used as soluble binding partner. Detection was done with anti-hIgG1-HRP and Amplex Red.

[2] = target: T2, Trail-R2 (TNFRSF10B) Fc fusion protein (Human, UniProt O14763 56-210)
T2 construct: extracellular domain; bought
Source text: as §1, §2

[3] = target: T3, CD95 (TNFRSF6) Fc fusion protein (Human, UniProt P25445 26-173)
T3 construct: extracellular domain; bought
T3 sequence (looked up): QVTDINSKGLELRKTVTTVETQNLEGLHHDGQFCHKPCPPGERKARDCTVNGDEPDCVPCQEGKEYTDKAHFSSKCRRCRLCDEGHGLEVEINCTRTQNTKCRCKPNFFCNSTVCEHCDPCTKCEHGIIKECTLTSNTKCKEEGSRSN
Source text: as §1, §2

[4] = target: T4, TNF-R1 (TNFRSF1A) Fc fusion protein (Human, UniProt P19438 30-211)
T4 construct: extracellular domain; bought
T4 sequence (looked up): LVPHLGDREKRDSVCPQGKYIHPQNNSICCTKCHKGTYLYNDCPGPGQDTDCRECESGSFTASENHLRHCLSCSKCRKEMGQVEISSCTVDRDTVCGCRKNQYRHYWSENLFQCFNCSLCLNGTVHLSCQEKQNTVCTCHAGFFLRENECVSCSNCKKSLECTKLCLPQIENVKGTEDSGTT
Source text: as §1, §2

[5] = target: T5, BCMA (TNFRSF17) Fc fusion protein (Human, UniProt Q02223 1-54)
T5 construct: extracellular domain; bought
T5 sequence (looked up): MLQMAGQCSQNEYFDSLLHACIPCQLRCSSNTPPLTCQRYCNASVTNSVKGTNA
Source text: as §1, §2

[6] = target: T6, TACI (TNFRSF13B) Fc fusion protein (Human, UniProt O14836 1-165)
T6 construct: extracellular domain; bought
T6 sequence (looked up): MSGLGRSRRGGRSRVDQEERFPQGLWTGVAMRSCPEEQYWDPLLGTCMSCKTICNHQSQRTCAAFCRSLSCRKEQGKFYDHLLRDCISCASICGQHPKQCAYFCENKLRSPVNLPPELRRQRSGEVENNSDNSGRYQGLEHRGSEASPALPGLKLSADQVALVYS
Source text: as §1, §2

[7] = target: T7, CD27 (TNFRSF7) Fc fusion protein (Human, UniProt P26842 20-191)
T7 construct: extracellular domain; bought
T7 sequence (P26842 20-191): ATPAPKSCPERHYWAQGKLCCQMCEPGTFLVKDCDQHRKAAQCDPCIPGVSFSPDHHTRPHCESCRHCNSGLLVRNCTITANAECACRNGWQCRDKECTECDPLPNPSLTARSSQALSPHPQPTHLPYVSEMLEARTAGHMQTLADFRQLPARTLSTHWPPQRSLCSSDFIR
Source text: as §1, §2

[8] = target: T8, CD40 (TNFRSF5) Fc fusion protein (Human, UniProt P25942 21-193)
T8 construct: extracellular domain; bought
T8 sequence (P25942 21-193): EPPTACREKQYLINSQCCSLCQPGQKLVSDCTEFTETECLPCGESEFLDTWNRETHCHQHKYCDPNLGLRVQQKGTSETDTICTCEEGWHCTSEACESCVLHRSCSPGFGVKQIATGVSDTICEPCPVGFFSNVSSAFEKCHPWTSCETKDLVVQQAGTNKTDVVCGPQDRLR
Source text: as §1, §2

[9] = target: T9, Osteoprotegerin (TNFRSF11B) Fc fusion protein (Human, UniProt O00300 22-194, limits assumed)
T9 construct: extracellular domain; bought
T9 sequence (looked up): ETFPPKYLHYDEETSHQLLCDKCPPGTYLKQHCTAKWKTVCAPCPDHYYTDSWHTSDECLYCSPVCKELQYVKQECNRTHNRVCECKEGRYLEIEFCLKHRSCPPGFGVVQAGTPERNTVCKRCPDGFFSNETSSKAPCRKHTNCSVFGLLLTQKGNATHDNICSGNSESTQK
Source text: as §1, §2

[10] = target: T10, NGF R (TNFRSF16) Fc fusion protein (Human, UniProt P08138 29-250)
T10 construct: extracellular domain; bought
T10 sequence (looked up): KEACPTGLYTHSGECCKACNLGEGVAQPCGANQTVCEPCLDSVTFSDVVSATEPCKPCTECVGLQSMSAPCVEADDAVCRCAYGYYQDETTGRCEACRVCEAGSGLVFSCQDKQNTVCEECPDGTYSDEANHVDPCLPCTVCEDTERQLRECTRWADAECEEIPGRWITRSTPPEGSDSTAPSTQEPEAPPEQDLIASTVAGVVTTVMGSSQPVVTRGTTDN
Source text: as §1, §2

[11] = target: T11, Lymphotioxin β R Fc fusion protein (Human, UniProt P36941 31-227)
T11 construct: extracellular domain; bought; also called Lymphotioxin B R
T11 sequence (P36941 31-227): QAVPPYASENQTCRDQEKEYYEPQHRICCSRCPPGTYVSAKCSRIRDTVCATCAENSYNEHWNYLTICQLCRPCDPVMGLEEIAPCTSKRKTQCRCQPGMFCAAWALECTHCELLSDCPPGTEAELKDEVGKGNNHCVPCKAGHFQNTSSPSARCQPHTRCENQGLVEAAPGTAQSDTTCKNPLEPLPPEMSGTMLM
Source text: as §1, §2

[12] = target: T12, Trail R 4 (TNFRSF10D) Fc fusion protein (Human, UniProt Q9UBN6 56-211)
T12 construct: extracellular domain; bought
T12 sequence (looked up): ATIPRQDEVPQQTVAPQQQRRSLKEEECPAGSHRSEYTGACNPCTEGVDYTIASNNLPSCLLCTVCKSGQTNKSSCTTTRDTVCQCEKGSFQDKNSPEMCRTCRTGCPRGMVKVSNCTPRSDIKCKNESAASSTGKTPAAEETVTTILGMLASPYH
Source text: as §1, §2

[13] = target: T13, EDA2R (TNFRSF27) Fc fusion protein (Human, UniProt Q9HAV5 1-138)
T13 construct: extracellular domain; bought
T13 sequence (looked up): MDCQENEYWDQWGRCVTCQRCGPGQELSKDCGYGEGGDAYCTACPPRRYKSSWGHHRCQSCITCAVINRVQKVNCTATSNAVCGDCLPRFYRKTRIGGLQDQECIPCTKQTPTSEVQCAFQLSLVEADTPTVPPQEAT
Source text: as §1, §2

[14] = target: T14, 4-1BB (TNFRSF9) Fc fusion protein (Human, UniProt Q07011 24-186)
T14 construct: extracellular domain; bought
T14 sequence (Q07011 24-186): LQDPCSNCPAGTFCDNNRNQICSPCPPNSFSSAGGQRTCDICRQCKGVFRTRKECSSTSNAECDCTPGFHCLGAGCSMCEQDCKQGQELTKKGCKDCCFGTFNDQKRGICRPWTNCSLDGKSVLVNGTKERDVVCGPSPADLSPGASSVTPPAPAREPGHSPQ
Source text: as §1, §2

Measured: binding result

T1 sequence (O00220 24-239): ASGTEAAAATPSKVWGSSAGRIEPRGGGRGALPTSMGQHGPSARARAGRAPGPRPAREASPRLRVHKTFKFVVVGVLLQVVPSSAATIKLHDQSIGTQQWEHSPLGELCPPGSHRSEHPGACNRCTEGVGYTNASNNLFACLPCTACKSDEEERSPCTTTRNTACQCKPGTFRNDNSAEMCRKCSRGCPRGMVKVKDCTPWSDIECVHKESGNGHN

B1: TPP-2090 (antibody, human IgG1, kappa, V domains shown)
VH: EVQLLESGGGLVQPGGSLRLSCAASGFTFSPYPMIWVRQAPGKGLEWVSYISPSGGSTHYADSVKGRFTISRDNSKNTLYLQMNSLRAEDTAVYYCARGGDTYFDYFDYWGQGTLVTVSS
VL: DIQMTQSPSSLSASVGDRVTITCRASQSISGYLNWYQQKPGKAPKLLIYQASSLQSGVPSRFSGSGSGTDFTLTISSLQPEDFATYYCQQSYTSPFITFGQGTKVEIKR
notes: Human IgG1
no binding (tested: 75 nM): all assays above

— patent US20160237160A1 (Bayer, published 2016)
